The values below come from US20170101472A1 (Regeneron, published 2017).

Experiment [1] concerns the target T1, human LAG3 expressed on HEK293 cells (human, UniProt P18627 23-525).
T1 construct: also called hLAG3; HEK293/hLAG3
T1 sequence: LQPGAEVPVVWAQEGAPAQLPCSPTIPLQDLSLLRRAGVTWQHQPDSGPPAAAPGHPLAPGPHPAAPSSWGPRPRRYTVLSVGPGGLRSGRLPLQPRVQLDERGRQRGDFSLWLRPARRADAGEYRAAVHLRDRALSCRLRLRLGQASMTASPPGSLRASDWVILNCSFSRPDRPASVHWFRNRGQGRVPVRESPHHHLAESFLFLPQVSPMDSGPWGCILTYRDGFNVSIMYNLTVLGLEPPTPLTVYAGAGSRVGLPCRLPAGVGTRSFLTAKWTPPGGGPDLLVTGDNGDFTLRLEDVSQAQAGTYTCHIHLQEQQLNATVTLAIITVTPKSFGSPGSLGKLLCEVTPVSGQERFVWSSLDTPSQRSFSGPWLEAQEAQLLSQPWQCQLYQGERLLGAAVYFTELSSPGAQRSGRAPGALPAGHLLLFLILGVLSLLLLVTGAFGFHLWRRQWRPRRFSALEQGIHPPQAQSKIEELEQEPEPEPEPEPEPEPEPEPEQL
As to the kind of experiment: cell adherence assay, blocks RAJI (human MHCII) cells on HEK293-hLAG3. The procedure: Cells were plated into sterile Nunclon™ Delta 96-Well MicroWell™ Black Optical Bottom Plates (Thermo Scientific). The wells from the perimeter of the plate were not included in the assay design to avoid edge effects.
On the day of treatment, all antibodies were serially (1:3) diluted in RPMI media (without FBS or supplements added). The 9-point dilution ranged between 45 pM to 300 nM, with the last dilution point containing no mAb. […] While the plated HEK293-LAG3 cells were incubating with the test or control antibodies, non-adherent B-cells (RAJI or A20) were labeled with Calcein AM using the following procedure. RAJI and A20 suspension cells were harvested and centrifuged at 1,200 rpm for 5 minutes. Cell pellets were resuspended in 1×PBS and counted. Cells were washed with RPMI, and resuspended in RPMI at a concentration of 10⁶ cells per 1 ml. Cells were labeled by adding 5 μL of Calcein AM per 1 ml of cell suspension and incubated for 30 min at 37° C., at 5% CO₂. […] Subsequently, 10 μL of BD Pharmingen Fc Block (0.5 mg/mL) was added per 1 ml of the Calcein AM labeled cells, which were incubated at RT for 10 minutes. The Calcein AM-stained, Fc-blocked RAJI or A20 cells were resuspended in RPMI to a final concentration of 3×10⁶ cells per 1 ml and subsequently used in the adherence assay.
The labeled suspension cells were incubated with the HEK293 monolayer for 1 hour at 37° C., at 5% CO₂.

Experiment [2] has as its target T2, recombinant human LAG3 expressed with a C-terminal myc-myc-hexahistidine tag (human, UniProt P18627 29-450).
T2 construct: also called hLAG3-mmh; hLAG3.mmh
As to the kind of experiment: SPR, mAb captured, 37 C. How it is done: (§1) The BiaCore sensor surface was derivatized with either a polyclonal rabbit anti-mouse antibody (GE, # BR-1008-38) or with a monoclonal mouse anti-human Fc antibody (GE, # BR-1008-39) to capture approximately 50-85 RUs of anti-LAG3 monoclonal antibodies, expressed with either a mouse Fc or a human Fc, respectively. […] The binding of the LAG3 reagents to captured monoclonal antibodies was monitored for 4 minutes while their dissociation from the antibodies was monitored for 8 minutes in HBST running buffer (0.01 M HEPES pH 7.4, 0.15 M NaCl, 3 mM EDTA, 0.05% v/v Surfactant P20). Experiments were performed at 25° C. and 37° C. Kinetic association (kₐ) and dissociation (kd) rate constants were determined by processing and fitting the data to a 1:1 binding model using Scrubber 2.0c curve fitting software. Binding dissociation equilibrium constants (KD) and dissociative half-lives (t_{1/2}) were then calculated from the kinetic rate constants as: KD (M)=kd/kₐ and t_{1/2} (min)=[ln2/(60*kd)].
On the technique in general: SPR reads the build-up and loss of mass on a sensor chip optically.

Experiment [3] concerns the target T3, recombinant human LAG3 expressed with a C-terminal mouse IgG2a mFc tag (human).
T3 construct: Called dimeric; also called hLAG3-mFc; hLAG3 dimer
T3 chain: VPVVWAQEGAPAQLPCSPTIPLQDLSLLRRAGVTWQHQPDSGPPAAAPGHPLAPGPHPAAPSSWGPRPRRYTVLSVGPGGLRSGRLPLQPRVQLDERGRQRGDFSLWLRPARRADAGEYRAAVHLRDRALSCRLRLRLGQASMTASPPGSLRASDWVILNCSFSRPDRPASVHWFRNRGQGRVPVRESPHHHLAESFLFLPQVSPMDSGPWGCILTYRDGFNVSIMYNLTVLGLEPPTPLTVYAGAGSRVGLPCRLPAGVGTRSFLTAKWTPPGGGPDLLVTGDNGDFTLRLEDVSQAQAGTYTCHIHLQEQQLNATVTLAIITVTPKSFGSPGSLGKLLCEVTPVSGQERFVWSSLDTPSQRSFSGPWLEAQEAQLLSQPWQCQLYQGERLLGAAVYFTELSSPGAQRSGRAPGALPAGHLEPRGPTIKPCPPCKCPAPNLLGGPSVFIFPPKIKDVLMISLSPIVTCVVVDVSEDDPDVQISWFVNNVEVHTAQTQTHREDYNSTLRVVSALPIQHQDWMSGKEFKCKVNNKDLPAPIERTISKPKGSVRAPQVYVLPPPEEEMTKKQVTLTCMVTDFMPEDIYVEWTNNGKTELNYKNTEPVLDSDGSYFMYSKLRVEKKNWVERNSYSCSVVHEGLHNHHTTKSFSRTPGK
As to the kind of experiment: SPR, mAb captured, 37 C. The procedure: as §1

Experiment [4] deals with T1, human LAG3 expressed on HEK293 cells. As to the kind of experiment: flow cytometry, HEK293/hLAG3 cells. The procedure:
The serially diluted antibodies were added to the cell suspension and incubated for 15-30 minutes on ice. The cells were centrifuged and pellets were washed with staining buffer to remove unbound antibodies. […] The cells were centrifuged and pellets were washed with staining buffer to remove unbound secondary F(ab′)2 and fixed overnight with a 1:1 dilution of Cytofix (BD Biosciences, #554655) and staining buffer. Following day, fixed cells were centrifuged and pellets were washed with staining buffer, resuspended and filtered. Fluorescence measurements were acquired on HyperCyt® cytometer and analyzed in ForeCyt™ (IntelliCyt; Albuquerque, N. Mex.) to determine the mean fluorescence intensities (MFI). The EC₅₀ values were calculated from a four-parameter logistic equation over an 11-point response curve using GraphPad Prism. EC₅₀ was defined as the concentration of antibody at which 50% of maximal binding signal is detected. The MFI ratio for each antibody was calculated by dividing the MFI at 100 nM by MFI at 0 nM of antibody concentration.

B1: H4H14813N (antibody, human IgG4, V domains shown)
VH: QVQLQQWGAGLLKPSETLSLTCAVYGGSFSGYYWNWIRQPPGKGLEWVGEISHRGSTNYNPSLKSRVTISLDTSKNQFSLKLTSVTAADTAVYYCSRDEELEFRFFDYWGQGTLVTVSS
VL: EIVLTQSPATLSLSPGERATLSCRASQSVSSYLAWYQQKPGQAPRLLVYGASNRATGIPARFSGSGSGTDFTLTISSLEPEDFAFYYCQQRSNWPLTFGGGTKVEIK
notes: H4H = human IgG4 Fc with S108P hinge mutation
On to B1, for which, in experiment [1], the IC50 (in general, the concentration needed to halve the response being measured) worked out at 17 nM. In experiment [2], the Kd (in general, the constant that tells how readily two partners part at equilibrium) came out at 0.284 nM; the koff (in general, the first-order rate constant of dissociation) was found to be 0.000152 s⁻¹; the kon (commonly the rate constant with which the complex forms) worked out at 535000 M⁻¹ s⁻¹; the t1/2 came out at 76 min. In experiment [3], the Kd worked out at 0.0274 nM, the koff was determined as 0.000117 s⁻¹, the kon was determined as 4.27e+06 M⁻¹ s⁻¹ and the t1/2 was found to be 98.8 min. In experiment [4], the EC50 (commonly the concentration giving half of the maximal effect) came to 1.44 nM and the “Ratio of MFI (100 nM/0 nM)” value is 208.

B2: H4H15483P (antibody, human IgG4, V domains shown)
VH: QVQLQQWGAGLLPPSETLSLICAVYGGSFSGYYWSWIRQPPGKGLEWIGEINHRGSTNYNPSLKSRATISVDTSKNQFSLKLSSVTAADTAVYYCSRGEDYYDSSGYSYYFDYWGQGTLVTVSS
VL: EIVLTQSPATLSLSPGERATLSCRASQSVSSYLAWYQQKPGQAPRLLIYDASNRATGIPARFSGSGSGTDFTLTISSLEPEDFAVYYCQQRSNWPLTFGGGTKVEIK
notes: as for B1
In the case of B2, the IC50 in experiment [1] came to 19 nM. Further, in experiment [2], the Kd came to 1.43 nM, the dissociation rate constant (koff) was found to be 0.00111 s⁻¹, the kon was 774000 M⁻¹ s⁻¹ and the t1/2 is 10.4 min. In experiment [3], the Kd came out at 0.215 nM, the koff was 0.000298 s⁻¹, the kon stood at 1.38e+06 M⁻¹ s⁻¹ and the t1/2 was 38.8 min. Also, in experiment [4], the concentration giving a half-maximal response (EC50) came out at 2.31 nM and the “Ratio of MFI (100 nM/0 nM)” value worked out at 206.

B3: H4H17828P2 (antibody, human IgG4, V domains shown)
VH: EVQLVESGGGLVQPGGSLRLSCAASGFTFKTYAMSWVRQAPGRGLEWVSGISGSGSTSYYADSVKGRFTISRDNYKKTLSLQMNSLRAEDTAVYYCALDIMATVGGLFNNWGQGTLVTVSS
VL: not shown
notes: as for B1
In experiment [1], B3 gave an IC50 of 11 nM. Besides, in experiment [2], the dissociation constant (Kd) is 1.89 nM, the koff turned out to be 0.00207 s⁻¹, the kon stood at 1.1e+06 M⁻¹ s⁻¹ and the t1/2 is 5.6 min. Also, in experiment [3], the equilibrium dissociation constant (Kd) is 0.415 nM, the koff was determined as 0.000718 s⁻¹, the kon turned out to be 1.73e+06 M⁻¹ s⁻¹ and the t1/2 worked out at 16.1 min. In experiment [4], the EC50 was determined as 2.65 nM and the “Ratio of MFI (100 nM/0 nM)” value stood at 355.

B4: H4H17819P (antibody, human IgG4, V domains shown)
VH: EVQLVESGGGLVQPGGSLRLSCVASGFTFSLYAMTWVRQVPGKGLEWVSTISGSGGGTYYTDSVKGRFTISRDNSKNTLYLQMNSLRADDTAVFYCTKESTTGTYSYFYGMDVWGQGTTVTVSS
VL: DIQMTQSPSSLSASVGDRVTITCRASQTISSYLNWYQQKPGKAPKLLIYAASSLQSGVPSRFSGSGSGTDFTLTLSGLQPEDFATYYCQQSYSTPLTFGGGTKVEIK
notes: as for B1
The molecule B4 showed an IC50 in experiment [1] of 17 nM. Also, in experiment [2], the Kd is 0.552 nM, the koff was 0.000876 s⁻¹, the kon came out at 1.59e+06 M⁻¹ s⁻¹ and the t1/2 came to 13.2 min. In experiment [3], the Kd stood at 0.317 nM, the koff worked out at 0.000527 s⁻¹, the kon was 1.66e+06 M⁻¹ s⁻¹ and the t1/2 is 21.9 min. Besides, in experiment [4], the response was half-maximal at 2.79 nM (EC50) and the “Ratio of MFI (100 nM/0 nM)” value turned out to be 436.

B5: H4H17823P (antibody, human IgG4, V domains shown)
VH: EVQLLESGGGLVQPGGSLRLSCAASGFTFRSYAMSWVRQAPGKGLEWVSVISGGGGRTYYTDSVKGRFTISRDNSKSMLYLQMNSLRAEDTAIYYCAKERVTGIDHYYYGVDVWGQGTTVTVSS
VL: DIQMTQSPSSLSASVGDRVTITCRASQSISSYLNWYQQKPGKAPKLLIYATSSLQSGVPSRFSGSASGTDFTLAISSLQPEDFATYYCQQSYTTPLTFGGGTKVEIK
notes: as for B1
In experiment [1], B5 yielded an IC50 of 8.6 nM. In experiment [2], the Kd was 0.524 nM, the koff is 0.000924 s⁻¹, the kon was 1.76e+06 M⁻¹ s⁻¹ and the t1/2 was 12.5 min. For the same molecule, in experiment [3], the Kd amounted to 0.437 nM, the koff worked out at 0.000585 s⁻¹, the kon was 1.34e+06 M⁻¹ s⁻¹ and the t1/2 came out at 19.7 min. For the same molecule, in experiment [4], the EC50 turned out to be 1.25 nM and the “Ratio of MFI (100 nM/0 nM)” value was determined as 305.

B6: H4H17826P2 (antibody, human IgG4, V domains shown)
VH: EVQLVESGGGLVQPGGSLRLSCAASGFTFSSYEMNWVRQAPGKGLEWVSYISSSGNTKDYAGSVKGRVTISRDNAKNLLYLQMNSLRAEDTAVYHCARDGGHYDILTGSMSYYYYALDVWGQGTTVTVSS
VL: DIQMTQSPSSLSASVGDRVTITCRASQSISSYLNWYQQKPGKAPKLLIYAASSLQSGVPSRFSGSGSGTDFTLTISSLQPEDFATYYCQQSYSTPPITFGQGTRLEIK
notes: as for B1
In experiment [1], B6 showed an IC50 of 27 nM. Also, in experiment [2], the Kd is 1.99 nM, the off-rate constant (koff) was determined as 0.00214 s⁻¹, the kon stood at 1.07e+06 M⁻¹ s⁻¹ and the t1/2 was determined as 5.4 min. Moreover, in experiment [3], the Kd worked out at 0.277 nM, the koff came to 0.000547 s⁻¹, the kon stood at 1.98e+06 M⁻¹ s⁻¹ and the t1/2 stood at 21.1 min. Besides, in experiment [4], the EC50 is 3.86 nM and the “Ratio of MFI (100 nM/0 nM)” value amounted to 414.

B7: H4sH15462P (antibody, V domains shown)
VH: QVQLVQSGAEVKKPGASVKVSCKASGYTFTNYYIHWVRQAPGQGLDWMGIINPGGGNTNYAQKFLGRVTMTRDTSTTTVYMELSSLRSEDTAIYYCARENWNSYFDNWGQGTLVTVSS
VL: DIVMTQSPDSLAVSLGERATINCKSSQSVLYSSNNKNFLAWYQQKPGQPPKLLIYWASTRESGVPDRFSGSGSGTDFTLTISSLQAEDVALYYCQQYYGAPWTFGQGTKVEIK
notes: H4sH = human IgG4 Fc with 2 or more amino acid changes as disclosed in US20140243504
In turn, B7 registered an IC50 in experiment [1] of 2.5 nM. Moreover, in experiment [2], the Kd was 7.66 nM, the koff was determined as 0.00772 s⁻¹, the on-rate (kon) amounted to 1.01e+06 M⁻¹ s⁻¹ and the t1/2 worked out at 1.5 min. Besides, in experiment [3], the equilibrium dissociation constant (Kd) was 0.876 nM, the koff was determined as 0.00157 s⁻¹, the kon is 1.8e+06 M⁻¹ s⁻¹ and the t1/2 is 7.3 min. For the same molecule, in experiment [4], a half-maximal effect (EC50) was put at 0.665 nM and the “Ratio of MFI (100 nM/0 nM)” value amounted to 182.
